Biological target: T1, eCK8 (Homo sapiens, UniProt P05787)
T1 construct: methods to investigate on CK8 cellular expression at the cell surface analysed by flow cytometry; endogenous in cells
T1 sequence (P05787 1-483): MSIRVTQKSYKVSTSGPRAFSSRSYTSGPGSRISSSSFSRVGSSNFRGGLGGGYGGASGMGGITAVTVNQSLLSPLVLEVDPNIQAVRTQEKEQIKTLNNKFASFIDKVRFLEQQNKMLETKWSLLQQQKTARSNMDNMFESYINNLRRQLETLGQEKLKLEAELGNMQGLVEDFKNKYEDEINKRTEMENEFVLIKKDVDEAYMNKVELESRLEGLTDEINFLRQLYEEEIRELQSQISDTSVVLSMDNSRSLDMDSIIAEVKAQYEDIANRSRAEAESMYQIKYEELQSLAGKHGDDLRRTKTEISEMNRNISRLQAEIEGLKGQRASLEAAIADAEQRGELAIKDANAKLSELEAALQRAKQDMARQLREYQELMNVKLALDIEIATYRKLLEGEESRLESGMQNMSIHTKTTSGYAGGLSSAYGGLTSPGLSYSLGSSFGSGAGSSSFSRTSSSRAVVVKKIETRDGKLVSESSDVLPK
Test: Antibody binding assay by flow cytometry (eCK8 expression on solid tumour cell lines)
Details: MAb 5 μg/mL, mean ± SD
Method: Cell lines. The established human neuroglioma cells H4, HS683, U373 or A172 (available from ATCC); the established human colorectal cells HT29; the established human pancreatic cells PANC1 or MIA-PA-CA2; the established human kidney adenocarcinoma cells A704 or ACHN and the established human lung adenocarcinoma cells A549 were grown in Dulbecco's Modified Eagle's Medium (Sigma, St Quentin Fallavier, France) supplemented with 10% heat-inactivated foetal bovine serum (FBS) (Sigma, St Quentin Fallavier, France), […] L-glutamine (Sigma, St Quentin Fallavier, France) and 100 U/mL, 100 μg/mL penicillin-streptomycin (Sigma, St Quentin Fallavier, France). The established human glioblastoma astrocytoma cells U87MG or T98G, the human head and neck cancer cells FaDu or Detroit562, the human urinary cancer cells UM-UC-3, J82, HT1197 or HT1376 and the human prostate cancer cells DU145 were grown in Eagle's Minimum Essential Medium (Sigma, St Quentin Fallavier, France) supplemented with 10% heat-inactivated fetal bovine serum (FBS) (Sigma, St Quentin Fallavier, France), […] L-glutamine (Sigma, St Quentin Fallavier, France) and 100 U/mL, 100 μg/mL penicillin-streptomycin (Sigma, St Quentin Fallavier, France). The established human breast adenocarcinoma cells MDAMB231, MCF-7 or HBL100 and the human colorectal cancer cells HCT116 were grown in Dulbecco's Modified Eagle's Medium Glutamax Low Glucose (Life Technologies, St Aubin, France) supplemented with 10% heat-inactivated fetal bovine serum (FBS) (Sigma, St Quentin Fallavier, France), […] L-glutamine (Sigma, St Quentin Fallavier, France) and 100 U/mL, 100 μg/mL penicillin-streptomycin (Sigma, St Quentin Fallavier, France).The established human colorectal cells HCT15 or SW480 and the human head and neck cancer cells TR146 were grown in Dulbecco's Modified Eagle's Medium Glutamax High Glucose (Life Technologies, St Aubin, France) supplemented with 10% heat-inactivated fetal bovine serum (FBS) (Sigma, St Quentin Fallavier, France) and 100 U/mL, 100 μg/mL penicillin-streptomycin (Sigma, St Quentin Fallavier, France). The established human head and neck cancer cells BICR16, BICR18 or BICR56 were grown in Dulbecco's Modified Eagle's Medium (Sigma, St Quentin Fallavier, France) supplemented with 10% heat-inactivated foetal bovine serum (FBS) (Sigma, St Quentin Fallavier, France), […] L-glutamine (Sigma, St Quentin Fallavier, France), 100 U/mL, 100 μg/mL penicillin-streptomycin (Sigma, St Quentin Fallavier, France) and 0.4 μg/mL hydrocortisone (Sigma, St Quentin Fallavier, France). The established human head and neck cancer cells SCC9, SCC4 or SCC15 were grown in Dulbecco's Modified Eagle's Medium/F12 (Life Technologies, St Aubin, France) supplemented with 10% heat-inactivated foetal bovine serum (FBS) (Sigma, St Quentin Fallavier, France), […] L-glutamine (Sigma, St Quentin Fallavier, France), 100 U/mL, 100 μg/mL penicillin-streptomycin (Sigma, St Quentin Fallavier, France) and 0,4 μg/mL hydrocortisone (Sigma, St Quentin Fallavier, France). The established human urinary bladder carcinoma cells 5637, the human prostate cancer cells LNCap clone FGC, the established human lung adenocarcinoma cells NCIH1703 or NCIH292, the human pancreatic cancer cells PSN1 or BxPC3 and the human kidney adenocarcinoma cells Caki1 were grown in RPMI-1640 Medium (Sigma, St Quentin Fallavier, France) supplemented with 10% heat-inactivated fetal bovine serum (FBS) (Sigma, St Quentin Fallavier, France), […] L-glutamine (Sigma, St Quentin Fallavier, France) and 100 U/mL, 100 μg/mL penicillin-streptomycin (Sigma, St Quentin Fallavier, France). […]

[1] = Detroit562 cell line (Head & Neck)
[2] = LNCaP clone FGC cell line (Prostate)
[3] = MIA-Pa-Ca-2 cell line (Pancreatic)

% labelled cells (8-MG-BA cell line (GBM)): 72 ± 11%
MFI (8-MG-BA cell line (GBM)): 261 ± 38
% labelled cells (42-MG-BA cell line (GBM)): 54 ± 7%
MFI (42-MG-BA cell line (GBM)): 247 ± 44
% labelled cells (5637 cell line (Urinary)): 59 ± 20%
MFI (5637 cell line (Urinary)): 284 ± 61
% labelled cells (A172 cell line (GBM)): 35 ± 23%
MFI (A172 cell line (GBM)): 186 ± 14
% labelled cells (A549 cell line (Lung)): 36 ± 12%
MFI (A549 cell line (Lung)): 193 ± 38
% labelled cells (A704 cell line (Renal)): 37 ± 26%
MFI (A704 cell line (Renal)): 184 ± 30
% labelled cells (ACHN cell line (Renal)): 46 ± 20%
MFI (ACHN cell line (Renal)): 195 ± 20
% labelled cells (AsPC-1 cell line (Pancreatic)): 26 ± 14%
MFI (AsPC-1 cell line (Pancreatic)): 181 ± 17
% labelled cells (BICR16 cell line (Head & Neck)): 52 ± 2%
MFI (BICR16 cell line (Head & Neck)): 206 ± 10
% labelled cells (BICR18 cell line (Head & Neck)): 79 ± 9%
MFI (BICR18 cell line (Head & Neck)): 257 ± 23
% labelled cells (BICR56 cell line (Head & Neck)): 39 ± 34%
MFI (BICR56 cell line (Head & Neck)): 123 ± 4
% labelled cells (BxPC-3 cell line (Pancreatic)): 41 ± 17%
MFI (BxPC-3 cell line (Pancreatic)): 220 ± 17
% labelled cells (CFPAC-1 cell line (Pancreatic)): 62 ± 4%
MFI (CFPAC-1 cell line (Pancreatic)): 279 ± 25
% labelled cells (Caki1 cell line (Renal)): 49 ± 12%
MFI (Caki1 cell line (Renal)): 267 ± 36
% labelled cells (DU145 cell line (Prostate)): 19 ± 11%
MFI (DU145 cell line (Prostate)): 185 ± 42
% labelled cells [1]: 36 ± 0%
MFI [1]: 203 ± 15
% labelled cells (FaDu cell line (Head & Neck)): 56 ± 8%
MFI (FaDu cell line (Head & Neck)): 258 ± 20
% labelled cells (H4 cell line (GBM)): 58 ± 33%
MFI (H4 cell line (GBM)): 199 ± 40
% labelled cells (HBL100 cell line (Breast)): 67 ± 8%
MFI (HBL100 cell line (Breast)): 219 ± 6
% labelled cells (HCT116 cell line (Colon)): 64 ± 0%
MFI (HCT116 cell line (Colon)): 283 ± 16
% labelled cells (HS683 cell line (GBM)): 54 ± 9%
MFI (HS683 cell line (GBM)): 225 ± 24
% labelled cells (HT29 cell line (Colon)): 49 ± 9%
MFI (HT29 cell line (Colon)): 203 ± 22
% labelled cells (HT1197 cell line (Urinary)): 23 ± 7%
MFI (HT1197 cell line (Urinary)): 240 ± 4
% labelled cells (HT1376 cell line (Urinary)): 53 ± 3%
MFI (HT1376 cell line (Urinary)): 497 ± 11
% labelled cells (HuP-T3 cell line (Pancreatic)): 62 ± 17%
MFI (HuP-T3 cell line (Pancreatic)): 260 ± 20
% labelled cells (J82 cell line (Urinary)): 68 ± 9%
MFI (J82 cell line (Urinary)): 319 ± 4
% labelled cells [2]: 76 ± 9%
MFI [2]: 412 ± 21
% labelled cells (MCF-7 cell line (Breast)): 56 ± 33%
MFI (MCF-7 cell line (Breast)): 250 ± 61
% labelled cells (MDAMB231 cell line (Breast)): 49 ± 14%
MFI (MDAMB231 cell line (Breast)): 179 ± 15
% labelled cells [3]: 58 ± 14%
MFI [3]: 264 ± 14
% labelled cells (NCIH292 cell line (Lung)): 53 ± 20%
MFI (NCIH292 cell line (Lung)): 272 ± 38
% labelled cells (NCIH1703 cell line (Lung)): 33 ± 10%
MFI (NCIH1703 cell line (Lung)): 188 ± 12
% labelled cells (PANC-1 cell line (Pancreatic)): 37 ± 7%
MFI (PANC-1 cell line (Pancreatic)): 198 ± 23
% labelled cells (PSN-1 cell line (Pancreatic)): 15 ± 6%
MFI (PSN-1 cell line (Pancreatic)): 193 ± 16
% labelled cells (SCC4 cell line (Head & Neck)): 59 ± 16%
MFI (SCC4 cell line (Head & Neck)): 222 ± 88
% labelled cells (SCC9 cell line (Head & Neck)): 30 ± 23%
MFI (SCC9 cell line (Head & Neck)): 193 ± 23
% labelled cells (SCC 15 cell line (Head & Neck)): 41 ± 21%
MFI (SCC 15 cell line (Head & Neck)): 167 ± 13
% labelled cells (SW480 cell line (Colon)): 38 ± 3%
MFI (SW480 cell line (Colon)): 179 ± 1
% labelled cells (T98G cell line (GBM)): 48 ± 25%
MFI (T98G cell line (GBM)): 211 ± 20
% labelled cells (TCCSUP cell line (Urinary)): 62 ± 10%
MFI (TCCSUP cell line (Urinary)): 255 ± 48
% labelled cells (TR146 cell line (Head & Neck)): 55 ± 18%
MFI (TR146 cell line (Head & Neck)): 140 ± 4
% labelled cells (U87-MG cell line (GBM)): 38 ± 23%
MFI (U87-MG cell line (GBM)): 178 ± 35
% labelled cells (U373 cell line (GBM)): 53 ± 1%
MFI (U373 cell line (GBM)): 161 ± 7
% labelled cells (UM-UC-3 cell line (Urinary)): 26 ± 23%
MFI (UM-UC-3 cell line (Urinary)): 156 ± 14
B1: HzR022 (D-A10): humanized anti-CK8 monoclonal antibody D-A10; VL SEQ ID NO: 14, VH SEQ ID NO: 15 (antibody, V domains shown)
VH: EVQLVESGGGLVQPGGSLRLSCAASGFTFSSYWMSWVRQAPGKGLVWVSDINSDGSSTKYADSVKGRFTISRDNAKNTLYLQMNSLRAEDTAVYYCIAHYSGGGFAYWGQGTLVTVSS
VL: DIVMTQAPLSLPVTPGEPASISCRSSKSLLYSNGYNYLYWFLQKPGQSPQLLIYYMSNLASGVPDRFSGSGSGTDFTLKISRVEAEDVGVYYCMQSLEYPFTFGQGTKLEIK
modifications: VHHzD-A10; VLHzD-A10

From patent US20230062308A1, “TREATMENT OF CK8 POSITIVE CANCERS IN RELATION WITH K-RAS GENE STATUS” (INTERNATIONAL - DRUG - DEVELOPMENT - BIOTECH, priority 2017, published 2023)
